The results in this text go back to publication doi:10.1101/2023.07.13.548819, “Trafficking Machinery is Rapidly Primed to Facilitate Polarised IL-6 Secretion in Dendritic Cells” (bioRxiv, 2023).

The test deals with T1, cytosolic fragment of human STX4 (residues 1-271 with 272C) (human, UniProt Q12846 1-271).
T1 construct: human STX4 lacking the transmembrane domain, residues 1-271; synthetic gene in NdeI/XhoI of pET28a(+); cysteine at position 272 ('residues 1-271 with 272C')
T1 chain: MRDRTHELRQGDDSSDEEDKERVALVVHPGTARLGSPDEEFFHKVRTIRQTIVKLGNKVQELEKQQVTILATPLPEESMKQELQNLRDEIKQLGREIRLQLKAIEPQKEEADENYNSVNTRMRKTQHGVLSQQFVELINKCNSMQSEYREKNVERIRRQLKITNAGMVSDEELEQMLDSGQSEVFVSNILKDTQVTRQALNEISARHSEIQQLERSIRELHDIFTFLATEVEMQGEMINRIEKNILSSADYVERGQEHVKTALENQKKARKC
Nature of the test: SEC; 100 mM (so in the source) of each protein mixed, overnight at RT; ENrich SEC 70 column in 20 mM HEPES pH 7.4, 100 mM NaCl, 0.2 mM TCEP, 1% CHAPS. Conditions: both partners purified.

B1: VAMP2(49-96) (domain or fragment, UniProt P63045 49-96, looked up)
chain: NVDKVLERDQKLSELDDRADALQAGASQFETSAAKLKRKYWWKNLKMM
notes: VAMP2, C-terminal half of the SNARE motif, residues 49-96; construct described previously (Pobbati, Stein and Fasshauer, 2006); that fragment is, as far as I recall, from rat; also called C-terminal half of the SNARE motif of VAMP2 (residues 49-96)
On to B1, for which the binding result was “binds”.
